Laboratory results published in patent US20120220489A1.

Tests used:
[1] = target: ERK1 (p44) inactive (GST tagged), human, Invitrogen PV 3312 (human) (UniProt P27361); test: RPA, normal assay
[2] = target: Erk1-BSA 2.7x peptide-protein conjugate (human; bovine); test: RPA, normal assay
[3] = target: Histone H3 recombinant protein, calf, Roche 11 034 758 001 (calf) (UniProt P68432); test: RPA, normal assay
[4] = target: Histone H3 recombinant protein, human, Upstate 14-494 (human) (UniProt P68431); test: RPA, normal assay
[5] = target: Histone H3-BSA 2.7x peptide-protein conjugate (bovine); test: RPA, normal assay
[6] = target: ERK1 (p42) active (phospho), human, Active Motif 31 152 (human) (UniProt P27361); test: RPA, competition: +recombinant protein 10 nM (not named)
[7] = target: ERK1 (p44) active (GST tagged), human, Invitrogen PV 3311 (human) (UniProt P27361); test: as above
[8] = target: ERK1 (p44) inactive (GST tagged), human, Invitrogen PV 3312 (human) (UniProt P27361); test: as above
[9] = target: ERK1 (p44), human, Cell Signaling Technology 7416 (human) (UniProt P27361); test: as above
[10] = target: ERK2 (p42), human, Biosource PHO 0104 (human) (UniProt P28482); test: as above
[11] = target: Erk1-BSA 2.7x peptide-protein conjugate (human; bovine); test: as above
[12] = target: Histone H3 recombinant protein, calf, Roche 11 034 758 001 (calf) (UniProt P68432); test: as above
[13] = target: Histone H3 recombinant protein, human, Upstate 14-494 (human) (UniProt P68431); test: as above
[14] = target: Histone H3-BSA 2.7x peptide-protein conjugate (bovine); test: as above
[15] = target: pErk1/2-BSA 2.7x peptide-protein conjugate (human; bovine); test: as above
[16] = target: pRb recombinant protein, human, Active Motif 31 128 (human) (UniProt P06400); test: as above
[17] = target: pRb-BSA 1x peptide-protein conjugate (bovine); test: as above
[18] = target: ERK1 (p42) active (phospho), human, Active Motif 31 152 (human) (UniProt P27361); test: RPA, competition: +recombinant protein 100 nM (not named)
[19] = target: ERK1 (p44) active (GST tagged), human, Invitrogen PV 3311 (human) (UniProt P27361); test: as above
[20] = target: ERK1 (p44) inactive (GST tagged), human, Invitrogen PV 3312 (human) (UniProt P27361); test: as above
[21] = target: ERK1 (p44), human, Cell Signaling Technology 7416 (human) (UniProt P27361); test: as above
[22] = target: ERK2 (p42), human, Biosource PHO 0104 (human) (UniProt P28482); test: as above
[23] = target: Erk1-BSA 2.7x peptide-protein conjugate (human; bovine); test: as above
[24] = target: Histone H3 recombinant protein, calf, Roche 11 034 758 001 (calf) (UniProt P68432); test: as above
[25] = target: Histone H3 recombinant protein, human, Upstate 14-494 (human) (UniProt P68431); test: as above
[26] = target: Histone H3-BSA 2.7x peptide-protein conjugate (bovine); test: as above
[27] = target: pErk1/2-BSA 2.7x peptide-protein conjugate (human; bovine); test: as above
[28] = target: pRb recombinant protein, human, Active Motif 31 128 (human) (UniProt P06400); test: as above
[29] = target: pRb-BSA 1x peptide-protein conjugate (bovine); test: as above
[30] = target: ERK1 (p42) active (phospho), human, Active Motif 31 152 (human) (UniProt P27361); test: RPA, normal assay
[31] = target: ERK1 (p44) active (GST tagged), human, Invitrogen PV 3311 (human) (UniProt P27361); test: RPA, normal assay
[32] = target: ERK1 (p44), human, Cell Signaling Technology 7416 (human) (UniProt P27361); test: RPA, normal assay
[33] = target: ERK2 (p42), human, Biosource PHO 0104 (human) (UniProt P28482); test: RPA, normal assay
[34] = target: pRb recombinant protein, human, Active Motif 31 128 (human) (UniProt P06400); test: RPA, normal assay
[35] = target: pRb-BSA 1x peptide-protein conjugate (bovine); test: RPA, normal assay
[36] = target: ERK1 (p44) active (GST tagged), human, Invitrogen PV 3311 (human) (UniProt P27361); test: RPA standard curves, mean of duplicate assays
[37] = target: ERK1 (p44) active (GST tagged), human, Invitrogen PV 3311 (human) (UniProt P27361); test: RPA standard curve, assay 1, LOD back-calculated from one-site fit
[38] = target: ERK1 (p44) active (GST tagged), human, Invitrogen PV 3311 (human) (UniProt P27361); test: RPA standard curve, assay 2, LOD back-calculated from one-site fit

Chain of pErk1/2-BSA 2.7x peptide-protein conjugate (human; bovine) (P02769 25-607 limits assumed): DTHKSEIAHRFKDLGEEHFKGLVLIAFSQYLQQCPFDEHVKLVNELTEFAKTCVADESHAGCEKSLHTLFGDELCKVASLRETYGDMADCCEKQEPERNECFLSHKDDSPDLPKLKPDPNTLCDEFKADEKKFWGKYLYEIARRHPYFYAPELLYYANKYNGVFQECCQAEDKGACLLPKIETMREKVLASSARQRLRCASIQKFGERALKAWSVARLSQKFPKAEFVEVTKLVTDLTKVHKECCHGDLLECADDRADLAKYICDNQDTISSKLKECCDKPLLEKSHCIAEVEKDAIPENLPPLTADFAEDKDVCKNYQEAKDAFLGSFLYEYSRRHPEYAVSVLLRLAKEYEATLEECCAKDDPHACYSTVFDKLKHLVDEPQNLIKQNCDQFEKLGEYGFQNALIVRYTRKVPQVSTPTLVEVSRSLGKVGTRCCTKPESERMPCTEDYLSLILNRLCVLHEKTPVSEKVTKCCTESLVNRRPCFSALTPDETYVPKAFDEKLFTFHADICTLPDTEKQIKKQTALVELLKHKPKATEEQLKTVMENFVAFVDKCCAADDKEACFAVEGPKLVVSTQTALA
Chain of pRb-BSA 1x peptide-protein conjugate (bovine) (P02769 25-607 limits assumed): as above
Chain of Histone H3-BSA 2.7x peptide-protein conjugate (bovine) (P02769 25-607 limits assumed): as above
Chain of UniProt P28482 (P28482 2-360 limits assumed): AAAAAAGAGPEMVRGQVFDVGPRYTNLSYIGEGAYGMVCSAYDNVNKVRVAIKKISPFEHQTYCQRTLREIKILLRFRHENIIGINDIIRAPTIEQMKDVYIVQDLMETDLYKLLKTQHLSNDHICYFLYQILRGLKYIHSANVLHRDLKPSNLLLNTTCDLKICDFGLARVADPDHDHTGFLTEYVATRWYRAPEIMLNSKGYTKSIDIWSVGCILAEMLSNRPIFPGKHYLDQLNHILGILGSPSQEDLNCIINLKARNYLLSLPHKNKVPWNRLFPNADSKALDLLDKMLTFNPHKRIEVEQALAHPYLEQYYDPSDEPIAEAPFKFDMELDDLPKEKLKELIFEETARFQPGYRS
Chain of UniProt P06400 (P06400 whole entry): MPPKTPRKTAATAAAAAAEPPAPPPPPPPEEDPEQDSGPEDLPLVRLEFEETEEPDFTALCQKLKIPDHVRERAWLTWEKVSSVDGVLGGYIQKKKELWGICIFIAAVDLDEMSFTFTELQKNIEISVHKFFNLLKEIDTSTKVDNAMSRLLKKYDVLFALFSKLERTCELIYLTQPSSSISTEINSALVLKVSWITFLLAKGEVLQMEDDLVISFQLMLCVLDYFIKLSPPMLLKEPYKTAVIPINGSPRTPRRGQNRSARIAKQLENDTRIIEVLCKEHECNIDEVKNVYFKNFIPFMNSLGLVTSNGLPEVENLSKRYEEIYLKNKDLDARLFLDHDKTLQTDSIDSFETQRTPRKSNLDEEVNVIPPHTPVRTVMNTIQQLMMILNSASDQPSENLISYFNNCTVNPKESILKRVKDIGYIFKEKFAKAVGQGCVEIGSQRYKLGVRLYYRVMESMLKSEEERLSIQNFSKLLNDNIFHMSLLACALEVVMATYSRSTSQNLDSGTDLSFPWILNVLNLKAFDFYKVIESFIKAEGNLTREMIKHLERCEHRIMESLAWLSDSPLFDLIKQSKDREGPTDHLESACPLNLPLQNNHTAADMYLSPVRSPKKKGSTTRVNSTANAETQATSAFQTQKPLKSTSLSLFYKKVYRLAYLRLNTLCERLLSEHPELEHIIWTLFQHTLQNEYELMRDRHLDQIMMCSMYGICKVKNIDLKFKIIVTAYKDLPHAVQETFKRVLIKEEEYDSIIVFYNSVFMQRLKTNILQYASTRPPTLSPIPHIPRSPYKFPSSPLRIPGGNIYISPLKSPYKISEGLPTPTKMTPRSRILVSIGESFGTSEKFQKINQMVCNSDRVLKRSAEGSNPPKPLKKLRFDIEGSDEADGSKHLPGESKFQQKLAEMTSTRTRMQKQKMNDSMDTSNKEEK
Chain of Erk1-BSA 2.7x peptide-protein conjugate (human; bovine) (peptide, as listed by the source limits assumed, chain 1 of 2): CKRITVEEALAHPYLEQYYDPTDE
Chain of Erk1-BSA 2.7x peptide-protein conjugate (human; bovine) (P02769 25-607 limits assumed, chain 2 of 2): as the sequence (P02769 25-607 limits assumed) above

Row | maximum standard curve signal [1] [RFI] | maximum standard curve signal [2] [RFI] | maximum standard curve signal [3] [RFI] | maximum standard curve signal [4] [RFI] | maximum standard curve signal [5] [RFI] | maximum standard curve signal [6] [RFI] | maximum standard curve signal [7] [RFI] | maximum standard curve signal [8] [RFI] | maximum standard curve signal [9] [RFI] | maximum standard curve signal [10] [RFI] | maximum standard curve signal [11] [RFI] | maximum standard curve signal [12] [RFI] | maximum standard curve signal [13] [RFI] | maximum standard curve signal [14] [RFI] | maximum standard curve signal [15] [RFI] | maximum standard curve signal [16] [RFI] | maximum standard curve signal [17] [RFI] | maximum standard curve signal [18] [RFI] | maximum standard curve signal [19] [RFI] | maximum standard curve signal [20] [RFI] | Substance | other results
1 | 0.02 | 0.01 | 0.43 | 11.2 | 5.38 | 2.4 | 2.2 | 2.54 | 2.19 | 2.3 | 2.8 | 2.5 | 3.16 | 3.93 | 2.57 | 2.77 | 2.57 | 1.87 | 1.37 | 1.32 | Histone H3 antibody, Abcam ab1791 | maximum standard curve signal [21]: 1.8 RFI; maximum standard curve signal [22]: 1.56 RFI; maximum standard curve signal [23]: 1.42 RFI; maximum standard curve signal [24]: 2.56 RFI; maximum standard curve signal [25]: 2.09 RFI; maximum standard curve signal [26]: 1.68 RFI; maximum standard curve signal [27]: 1.81 RFI; maximum standard curve signal [28]: 2.28 RFI; maximum standard curve signal [29]: 2.46 RFI
2 | 10.9 | 8.24 | 0.02 |  | 0.04 | 0.31 | 3.88 | 5.17 | 0.15 | 0.9 | 7.88 | 0.07 | 0.09 | 0.13 | 0.08 | 0.11 | 0.1 | 0.15 | 0.32 | 0.38 | p44/42 MAPK (Erk1/2) antibody, Biosource 44-654G | maximum standard curve signal [30]: 1.17 RFI; maximum standard curve signal [31]: 10.4 RFI; maximum standard curve signal [32]: 0.28 RFI; maximum standard curve signal [33]: 3.57 RFI; maximum standard curve signal [34]: 0.02 RFI; maximum standard curve signal [35]: 0.03 RFI; mean LOD [36]: 0.044 nM; maximum standard curve signal [21]: 0.16 RFI; maximum standard curve signal [22]: 0.18 RFI; maximum standard curve signal [23]: 5.69 RFI; maximum standard curve signal [24]: 0.15 RFI; maximum standard curve signal [25]: 0.16 RFI; maximum standard curve signal [26]: 0.22 RFI; maximum standard curve signal [27]: 0.14 RFI; maximum standard curve signal [28]: 0.17 RFI; maximum standard curve signal [29]: 0.16 RFI; LOD [37]: 0.04 nM; LOD [38]: 0.047 nM
3 | 0.23 | 0.02 | 0.01 | 0.01 | 0.11 |  |  |  |  |  |  |  |  |  |  |  |  |  |  |  | p44/42 MAPK phospho (pERK1/2) Thr202/Tyr204 antibody, Cell Signaling Technology #9101 | maximum standard curve signal [30]: 0.19 RFI; maximum standard curve signal [31]: 1.66 RFI; maximum standard curve signal [32]: 0.04 RFI; maximum standard curve signal [33]: 0.01 RFI; maximum standard curve signal [34]: 0.01 RFI; maximum standard curve signal [35]: 0.01 RFI; mean LOD [36]: 0.055 nM; LOD [37]: 0.058 nM; LOD [38]: 0.052 nM
